Residue numbers refer to the chain shown, from its start.
B1: recombinant Drosophila septin hexamers (DSep1-msfGFP, DSep2, Peanut) (complex)
chain 1: MADTKGFSSIETPGYVGFANLPNQVHRKSVKKGFEFTLMVVGESGLGKSTLVNSLFLTDLYPERIIPDAIEKQKQTVKLEASTVEIEERGVKLRLTVVDTPGFGDAIDNSNSFGAILEYIDEQYERFLRDESGLNRRNIVDNRIHCCFYFISPFGHGLKPLDVEFMKKLHSKVNIVPVIAKADCLTKKEILRLKCRIMQEIESHGIKIYPLPDCDSDEDEDYKEQVKQLKEAVPFAVCGANTLLEVKGKKVRGRLYPWGVVEVENPDHCDFIKLRTMLITHMQDLQEVTQEVHYENYRSDRLAKGIKGKENGVKAERDSSSQVVSNSVLGEKDRILQEKEAELRRMQEMLAQMQARMQAQQ
chain 2: MSVEVDFVDKKEVHLRTLKQSGHVGFDSLPDQLVNKSVQNGFVFNVMCIGETGLGKSTLMDTLFNTSFESTPSPHTLPSVKLKAHTYELQESNVRLKLTICDTVGYGDQINKDDSFKAVVDYIDAQFENYLQEELKIKRSLVTCHDSRIHICLYFICPTGHGLKSLDLVCMKKLDSKVNIIPVIAKADTISKVELQRFKAKIIQELNANGVHIYQFPTDDETVAETNTSMNSHIPFAVVGSTEFIKVGNKLIRARQYPWGTVQVENETHCDFVKLREMLIRTNMEDMREKTHTRHYELYRQKRLEQMGFSDVDSDNKPISFQQTFEAKRSNHLAELQSKEEEVRQMFVQRVKEKEAELKESEKDLHAKFEKLKRDHAEEKRKLEESRKALEEDYLDFQRRKQQLATAHHTLTLGKSKKK
chain 3: MNSPRSNAVNGGSGGAISALPSTLAQLALRDKQQAASASASSATNGSSGSESLVGVGGRPPNQPPSVPVAASGKLDTSGGGASNGDSNKLTHDLQEKEHQQAQKPQKPPLPVRQKPMEIAGYVGFANLPNQVYRKAVKRGFEFTLMVVGASGLGKSTLINSMFLSDIYNAEQYPGPSLRKKKTVAVEATKVMLKENGVNLTLTVVDTPGFGDAVDNSNCWVPILEYVDSKYEEYLTAESRVYRKTISDSRVHCCLYFIAPSGHGLLPLDIACMQSLSDKVNLVPVIAKADTMTPDEVHLFKKQILNEIAQHKIKIYDFPATLEDAAEEAKTTQNLRSRVPFAVVGANTIIEQDGKKVRGRRYPWGLVEVENLTHCDFIALRNMVIRTHLQDLKDVTNNVHYENYRCRKLSELGLVDGKARLSNKNPLTQMEEEKREHEQKMKKMEAEMEQVFDMKVKEKMQKLRDSELELARRHEERKKALELQIRELEEKRREFEREKKEWEDVNHVTLEELKRRSLGANSSTDNVDGKKEKKKKGLF
B2: SEPT2-msfGFP human septin octamers containing SEPT9_i3 (complex)
chain 1: MSKQQPTQFINPETPGYVGFANLPNQVHRKSVKKGFEFTLMVVGESGLGKSTLINSLFLTDLYPERVIPGAAEKIERTVQIEASTVEIEERGVKLRLTVVDTPGYGDAINCRDCFKTIISYIDEQFERYLHDESGLNRRHIIDNRVHCCFYFISPFGHGLKPLDVAFMKAIHNKVNIVPVIAKADTLTLKERERLKKRILDEIEEHNIKIYHLPDAESDEDEDFKEQTRLLKASIPFSVVGSNQLIEAKGKKVRGRLYPWGVVEVENPEHNDFLKLRTMLITHMQDLQEVTQDLHYENFRSERLKRGGRKVENEDMNKDQILLEKEAELRRMQEMIARMQAQMQMQMQGGDGDGGALGHHV
chain 2: MAATDIARQVGEGCRTVPLAGHVGFDSLPDQLVNKSVSQGFCFNILCVGETGLGKSTLMDTLFNTKFEGEPATHTQPGVQLQSNTYDLQESNVRLKLTIVSTVGFGDQINKEDSYKPIVEFIDAQFEAYLQEELKIRRVLHTYHDSRIHVCLYFIAPTGHSLKSLDLVTMKKLDSKVNIIPIIAKADAISKSELTKFKIKITSELVSNGVQIYQFPTDDESVAEINGTMNAHLPFAVIGSTEELKIGNKMMRARQYPWGTVQVENEAHCDFVKLREMLIRVNMEDLREQTHTRHYELYRRCKLEEMGFKDTDPDSKPFSLQETYEAKRNEFLGELQKKEEEMRQMFVQRVKEKEAELKEAEKELHEKFDRLKKLHQDEKKKLEDKKKSLDDEVNAFKQRKTAAELLQSQGSQAGGSQTLKRDKEKKN
chain 3: MSVSARSAAAEERSVNSSTMVAQQKNLEGYVGFANLPNQVYRKSVKRGFEFTLMVVGESGLGKSTLINSLFLTDLYSPEYPGPSHRIKKTVQVEQSKVLIKEGGVQLLLTIVDTPGFGDAVDNSNCWQPVIDYIDSKFEDYLNAESRVNRRQMPDNRVQCCLYFIAPSGHGLKPLDIEFMKRLHEKVNIIPLIAKADTLTPEECQQFKKQIMKEIQEHKIKIYEFPETDDEEENKLVKKIKDRLPLAVVGSNTIIEVNGKRVRGRQYPWGVAEVENGEHCDFTILRNMLIRTHMQDLKDVTNNVHYENYRSRKLAAVTYNGVDNNKNKGQLTKSPLAQMEEERREHVAKMKKMEMEMEQVFEMKVKEKVQKLKDSEAELQRRHEQMKKNLEAQHKELEEKRRQFEDEKANWEAQQRILEQQNSSRTLEKNKKKGKIF
chain 4: MERDRISALKRSFEVEEVETPNSTPPRRVQTPLLRATVASSTQKFQDLGVKNSEPSARHVDSLSQRSPKASLRRVELSGPKAAEPVSRRTELSIDISSKQVENAGAIGPSRFGLKRAEVLGHKTPEPAPRRTEITIVKPQESAHRRMEPPASKVPEVPTAPATDAAPKRVEIQMPKPAEAPTAPSPAQTLENSEPAPVSQLQSRLEPKPQPPVAEATPRSQEATEAAPSCVGDMADTPRDAGLKQAPASRNEKAPVDFGYVGIDSILEQMRRKAMKQGFEFNIMVVGQSGLGKSTLINTLFKSKISRKSVQPTSEERIPKTIEIKSITHDIEEKGVRMKLTVIDTPGFGDHINNENCWQPIMKFINDQYEKYLQEEVNINRKKRIPDTRVHCCLYFIPATGHSLRPLDIEFMKRLSKVVNIVPVIAKADTLTLEERVHFKQRITADLLSNGIDVYPQKEFDEDSEDRLVNEKFREMIPFAVVGSDHEYQVNGKRILGRKTKWGTIEVENTTHCEFAYLRDLLIRTHMQNIKDITSSIHFEAYRVKRLNEGSSAMANGVEEKEPEAPEM
B3: recombinant mammalian SEPT2-, SEPT6-, SEPT7-containing hexamers (mouse SEPT2, human SEPT6, human SEPT7ΔN19) (complex)
chain 1: B2 chain 1 with V67I, N207S, G352S, G354S, H359Q
chain 2: B2 chain 2
chain 3: MVAQQKNLEGYVGFANLPNQVYRKSVKRGFEFTLMVVGESGLGKSTLINSLFLTDLYSPEYPGPSHRIKKTVQVEQSKVLIKEGGVQLLLTIVDTPGFGDAVDNSNCWQPVIDYIDSKFEDYLNAESRVNRRQMPDNRVQCCLYFIAPSGHGLKPLDIEFMKRLHEKVNIIPLIAKADTLTPEECQQFKKQIMKEIQEHKIKIYEFPETDDEEENKLVKKIKDRLPLAVVGSNTIIEVNGKRVRGRQYPWGVAEVENGEHCDFTILRNMLIRTHMQDLKDVTNNVHYENYRSRKLAAVTYNGVDNNKNKGQLTKSPLAQMEEERREHVAKMKKMEMEMEQVFEMKVKEKVQKLKDSEAELQRRHEQMKKNLEAQHKELEEKRRQFEDEKANWEAQQRILEQQNSSRTLEKNKKKGKIF
B4: recombinant human septin octamers containing SEPT9_i1 (nonfluorescent) (complex)
chain 1: B2 chain 1
chain 2: B2 chain 2
chain 3: B2 chain 3
chain 4: MKKSYSGGTRTSSGRLRRLGDSSGPALKRSFEVEEVETPNSTPPRRVQTPLLRATVASSTQKFQDLGVKNSEPSARHVDSLSQRSPKASLRRVELSGPKAAEPVSRRTELSIDISSKQVENAGAIGPSRFGLKRAEVLGHKTPEPAPRRTEITIVKPQESAHRRMEPPASKVPEVPTAPATDAAPKRVEIQMPKPAEAPTAPSPAQTLENSEPAPVSQLQSRLEPKPQPPVAEATPRSQEATEAAPSCVGDMADTPRDAGLKQAPASRNEKAPVDFGYVGIDSILEQMRRKAMKQGFEFNIMVVGQSGLGKSTLINTLFKSKISRKSVQPTSEERIPKTIEIKSITHDIEEKGVRMKLTVIDTPGFGDHINNENCWQPIMKFINDQYEKYLQEEVNINRKKRIPDTRVHCCLYFIPATGHSLRPLDIEFMKRLSKVVNIVPVIAKADTLTLEERVHFKQRITADLLSNGIDVYPQKEFDEDSEDRLVNEKFREMIPFAVVGSDHEYQVNGKRILGRKTKWGTIEVENTTHCEFAYLRDLLIRTHMQNIKDITSSIHFEAYRVKRLNEGSSAMANGVEEKEPEAPEM
B5: recombinant mammalian SEPT9_i3-containing octamers (mouse SEPT2, human SEPT6, human SEPT7ΔN19, human SEPT9_i3) (complex)
chain 1: B2 chain 1 with V67I, N207S, G352S, G354S, H359Q
chain 2: B2 chain 2
chain 3: B3 chain 3
chain 4: B2 chain 4
B6: recombinant human septin octamers containing SEPT9_i3 (nonfluorescent) (complex)
chain 1: B2 chain 1
chain 2: B2 chain 2
chain 3: B2 chain 3
chain 4: B2 chain 4

Molecular target: the molecule itself
Assay: spinning disk fluorescence microscopy of septin polymerisation

Protein	binding result
B1	binds
B2	binds

Molecular target: the molecule itself
Assay: negative-stain electron microscopy of septin polymerisation

Protein	binding result
B3	binds
B4	binds
B5	binds
B6	binds
